This note sets out measurements from US20210388087A1 (Chugai, published 2021).

B1: GLS3000 N30G (antibody, name in Kabat numbering, V domains shown)
VH: QVQLVESGGGVVQPGRSLRLSCAASGFTFSNAWMHWVRQAPGKGLEWVAQIKAKSNNYATYYAESVKGRFTISRDDSKNSLYLQMNSLKTEDTAVYYCRYVHYGAYYGVDAWGQGTTVTVSS
VL: DIVMTQSPLSLPVTPGEPASISCRSSQSLVHSNRGTYLHWYQQKPGQAPRLLIYKVSNRFSGVPDRFSGSGSGTDFTLKISRVEAEDVGVYYCGQGTQVPYTFGQGTKLEIK
notes: one-arm IgG as m2
B2: GLS3000 N53P (antibody, name in Kabat numbering, V domains shown)
VH: B1 VH
VL: B1 VL with G35N, N58P
notes: one-arm IgG as m2
B3: GLS3000 N30K (antibody, name in Kabat numbering, V domains shown)
VH: B1 VH
VL: B1 VL with G35K
notes: one-arm IgG as m2
B4: GLS3000 N53Y (antibody, name in Kabat numbering, V domains shown)
VH: B1 VH
VL: B1 VL with G35N, N58Y
notes: one-arm IgG as m2
B5: GLS3000 N30V (antibody, name in Kabat numbering, V domains shown)
VH: B1 VH
VL: B1 VL with G35V
notes: one-arm IgG as m2
B6: GLS3000 N53A (antibody, name in Kabat numbering, V domains shown)
VH: B1 VH
VL: B1 VL with G35N, N58A
notes: one-arm IgG as m2
B7: GLS3000 N30H (antibody, name in Kabat numbering, V domains shown)
VH: B1 VH
VL: B1 VL with G35H
notes: one-arm IgG as m2
B8: GLS3000 P95L (antibody, name in Kabat numbering, V domains shown)
VH: B1 VH
VL: B1 VL with G35N, P100L
notes: one-arm IgG as m2
B9: GLS3000 Q27L (antibody, name in Kabat numbering, V domains shown)
VH: B1 VH
VL: B1 VL with Q27L, G35N
notes: one-arm IgG as m2
B10: GLS3000 N53E (antibody, name in Kabat numbering, V domains shown)
VH: B1 VH
VL: B1 VL with G35N, N58E
notes: one-arm IgG as m2
B11: GLS3000 N30I (antibody, name in Kabat numbering, V domains shown)
VH: B1 VH
VL: B1 VL with G35I
notes: one-arm IgG as m2
B12: GLS3000 N30R (antibody, name in Kabat numbering, V domains shown)
VH: B1 VH
VL: B1 VL with G35R
notes: one-arm IgG as m2
B13: GLS3000 P95A (antibody, name in Kabat numbering, V domains shown)
VH: B1 VH
VL: B1 VL with G35N, P100A
notes: one-arm IgG as m2
B14: GLS3000 P95E (antibody, name in Kabat numbering, V domains shown)
VH: B1 VH
VL: B1 VL with G35N, P100E
notes: one-arm IgG as m2
B15: GLS3000 Q27P (antibody, name in Kabat numbering, V domains shown)
VH: B1 VH
VL: B1 VL with Q27P, G35N
notes: one-arm IgG as m2
B16: GLS3000 N30L (antibody, name in Kabat numbering, V domains shown)
VH: B1 VH
VL: B1 VL with G35L
notes: one-arm IgG as m2
B17: GLS3000 Q27E (antibody, name in Kabat numbering, V domains shown)
VH: B1 VH
VL: B1 VL with Q27E, G35N
notes: one-arm IgG as m2
B18: GLS3000 N53R (antibody, name in Kabat numbering, V domains shown)
VH: B1 VH
VL: B1 VL with G35N, N58R
notes: one-arm IgG as m2
B19: GLS3000 N30Q (antibody, name in Kabat numbering, V domains shown)
VH: B1 VH
VL: B1 VL with G35Q
notes: one-arm IgG as m2
B20: GLS3000 N53T (antibody, name in Kabat numbering, V domains shown)
VH: B1 VH
VL: B1 VL with G35N, N58T
notes: one-arm IgG as m2
B21: GLS3000 N53Q (antibody, name in Kabat numbering, V domains shown)
VH: B1 VH
VL: B1 VL with G35N, N58Q
notes: one-arm IgG as m2
B22: GLS3000 N53H (antibody, name in Kabat numbering, V domains shown)
VH: B1 VH
VL: B1 VL with G35N, N58H
notes: one-arm IgG as m2
B23: GLS3000 P95G (antibody, name in Kabat numbering, V domains shown)
VH: B1 VH
VL: B1 VL with G35N, P100G
notes: one-arm IgG as m2
B24: GLS3000 N53G (antibody, name in Kabat numbering, V domains shown)
VH: B1 VH
VL: B1 VL with G35N, N58G
notes: one-arm IgG as m2
B25: GLS3000 N53M (antibody, name in Kabat numbering, V domains shown)
VH: B1 VH
VL: B1 VL with G35N, N58M
notes: one-arm IgG as m2
B26: GLS3000 N30M (antibody, name in Kabat numbering, V domains shown)
VH: B1 VH
VL: B1 VL with G35M
notes: one-arm IgG as m2
B27: GLS3000 N30P (antibody, name in Kabat numbering, V domains shown)
VH: B1 VH
VL: B1 VL with G35P
notes: one-arm IgG as m2
B28: GLS3000 N30Y (antibody, name in Kabat numbering, V domains shown)
VH: B1 VH
VL: B1 VL with G35Y
notes: one-arm IgG as m2
B29: GLS3000 N53W (antibody, name in Kabat numbering, V domains shown)
VH: B1 VH
VL: B1 VL with G35N, N58W
notes: one-arm IgG as m2
B30: GLS3000 N30T (antibody, name in Kabat numbering, V domains shown)
VH: B1 VH
VL: B1 VL with G35T
notes: one-arm IgG as m2
B31: GLS3000 N53L (antibody, name in Kabat numbering, V domains shown)
VH: B1 VH
VL: B1 VL with G35N, N58L
notes: one-arm IgG as m2
B32: GLS3000 N53I (antibody, name in Kabat numbering, V domains shown)
VH: B1 VH
VL: B1 VL with G35N, N58I
notes: one-arm IgG as m2
B33: GLS3000 N53S (antibody, name in Kabat numbering, V domains shown)
VH: B1 VH
VL: B1 VL with G35N, N58S
notes: one-arm IgG as m2
B34: GLS3000 P95D (antibody, name in Kabat numbering, V domains shown)
VH: B1 VH
VL: B1 VL with G35N, P100D
notes: one-arm IgG as m2
B35: GLS3000 Q27R (antibody, name in Kabat numbering, V domains shown)
VH: B1 VH
VL: B1 VL with Q27R, G35N
notes: one-arm IgG as m2
B36: GLS3000 Q27D (antibody, name in Kabat numbering, V domains shown)
VH: B1 VH
VL: B1 VL with Q27D, G35N
notes: one-arm IgG as m2
B37: GLS3000 N30S (antibody, name in Kabat numbering, V domains shown)
VH: B1 VH
VL: B1 VL with G35S
notes: one-arm IgG as m2
B38: GLS3000 N53V (antibody, name in Kabat numbering, V domains shown)
VH: B1 VH
VL: B1 VL with G35N, N58V
notes: one-arm IgG as m2
B39: GLS3000 P95S (antibody, name in Kabat numbering, V domains shown)
VH: B1 VH
VL: B1 VL with G35N, P100S
notes: one-arm IgG as m2
B40: GLS3000 N53F (antibody, name in Kabat numbering, V domains shown)
VH: B1 VH
VL: B1 VL with G35N, N58F
notes: one-arm IgG as m2
B41: GLS3000 N53K (antibody, name in Kabat numbering, V domains shown)
VH: B1 VH
VL: B1 VL with G35N, N58K
notes: one-arm IgG as m2
B42: GLS3000 N30W (antibody, name in Kabat numbering, V domains shown)
VH: B1 VH
VL: B1 VL with G35W
notes: one-arm IgG as m2
B43: GLS3000 N53D (antibody, name in Kabat numbering, V domains shown)
VH: B1 VH
VL: B1 VL with G35N, N58D
notes: one-arm IgG as m2

Where a chain is given by its changes, count along the chain named.

This experiment deals with T1, CD3 epsilon homodimer protein (UniProt P07766 23-126).
T1 construct: also called CD3 (CD3 epsilon)
T1 sequence (P07766 23-126): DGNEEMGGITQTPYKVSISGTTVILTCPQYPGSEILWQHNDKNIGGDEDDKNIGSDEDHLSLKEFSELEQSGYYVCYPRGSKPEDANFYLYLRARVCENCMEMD
In words: SPR Biacore T200, CD3e homodimer on chip, vs unaltered GLS3000 antibody. A general note: Surface plasmon resonance follows binding to a sensor surface in real time, without labels.
For the molecule B1, the “ratio of amounts bound (Z=Y/X)” value is 0.47.

On to B2, for which the “ratio of amounts bound (Z=Y/X)” value amounted to 0.81.

Regarding B3, the “ratio of amounts bound (Z=Y/X)” value was found to be 1.65.

With B4, the “ratio of amounts bound (Z=Y/X)” value was found to be 0.67.

In the case of B5, the “ratio of amounts bound (Z=Y/X)” value came out at 0.61.

Consider B6, for which the “ratio of amounts bound (Z=Y/X)” value is 0.61.

Take B7: the “ratio of amounts bound (Z=Y/X)” value was 0.98.

Turning to B8, the “ratio of amounts bound (Z=Y/X)” value was 0.24.

Regarding B9, the “ratio of amounts bound (Z=Y/X)” value amounted to 0.92.

B10: the “ratio of amounts bound (Z=Y/X)” value came out at 0.54.

With B11, the “ratio of amounts bound (Z=Y/X)” value was 0.61.

B12: the “ratio of amounts bound (Z=Y/X)” value amounted to 1.86.

For B13, the “ratio of amounts bound (Z=Y/X)” value came out at 0.63.

For the molecule B14, the “ratio of amounts bound (Z=Y/X)” value came to 0.39.

As to B15, the “ratio of amounts bound (Z=Y/X)” value was 0.29.

Consider B16, for which the “ratio of amounts bound (Z=Y/X)” value was 0.7.

Take B17: the “ratio of amounts bound (Z=Y/X)” value amounted to 0.88.

Consider B18, for which the “ratio of amounts bound (Z=Y/X)” value was found to be 1.58.

For the molecule B19, the “ratio of amounts bound (Z=Y/X)” value turned out to be 0.87.

On to B20, for which the “ratio of amounts bound (Z=Y/X)” value stood at 0.56.

For B21, the “ratio of amounts bound (Z=Y/X)” value came to 0.77.

Take B22: the “ratio of amounts bound (Z=Y/X)” value was found to be 1.18.

As for B23, the “ratio of amounts bound (Z=Y/X)” value is 0.37.

Regarding B24, the “ratio of amounts bound (Z=Y/X)” value turned out to be 0.76.

As for B25, the “ratio of amounts bound (Z=Y/X)” value came out at 0.62.

In the case of B26, the “ratio of amounts bound (Z=Y/X)” value came out at 0.8.

For B27, the “ratio of amounts bound (Z=Y/X)” value came to 0.31.

Regarding B28, the “ratio of amounts bound (Z=Y/X)” value came to 1.04.

Take B29: the “ratio of amounts bound (Z=Y/X)” value was 0.81.

For B30, the “ratio of amounts bound (Z=Y/X)” value worked out at 0.29.

In the case of B31, the “ratio of amounts bound (Z=Y/X)” value stood at 0.56.

On to B32, for which the “ratio of amounts bound (Z=Y/X)” value stood at 0.5.

On to B33, for which the “ratio of amounts bound (Z=Y/X)” value came out at 0.69.

Regarding B34, the “ratio of amounts bound (Z=Y/X)” value came to 0.24.

B35: the “ratio of amounts bound (Z=Y/X)” value was 1.19.

B36: the “ratio of amounts bound (Z=Y/X)” value was determined as 0.85.

As to B37, the “ratio of amounts bound (Z=Y/X)” value amounted to 0.29.

Consider B38, for which the “ratio of amounts bound (Z=Y/X)” value was determined as 0.56.

As to B39, the “ratio of amounts bound (Z=Y/X)” value came to 0.43.

B40: the “ratio of amounts bound (Z=Y/X)” value came to 0.69.

For the molecule B41, the “ratio of amounts bound (Z=Y/X)” value turned out to be 1.08.

B42: the “ratio of amounts bound (Z=Y/X)” value came out at 0.99.

B43: the “ratio of amounts bound (Z=Y/X)” value was 0.34.
